Results taken from patent publication US11787850B2, “Peptidic TGF-beta antagonists” (priority 2015, dated 2023).

Experiments:
[1] = Aggregation assay: Microcon 100 kDa filtration, Tricine SDS-PAGE, silver staining; format: physicochemical; settings: for aggregation state (aggregated versus soluble fraction): 50 mM Tris-HCl pH 7.0, 2 hrs at 4° C., 100 kDa cut-off; for effect of DMSO treatment on aggregation: 0.5% DMSO for 2 hrs at 4° C.
Procedure: Peptide X (X, 40 amino acids) and P16 (16 amino acids) were left untreated (−) or treated with 0.5% DMSO (+) for 2 hrs at 4° C. The aggregated and non-aggregated soluble fractions were then separated using a Microcon™ centrifugal filtration device (Millipore), with a molecular weight cut-off of 100 kDa. This device allows passage of molecules <100 kDa through the filter but retains larger molecules (aggregates). The aggregated (FIG. 1A—left panel) and soluble (FIG. 1B—right panel) fractions were then separated by 17% Tricine-SDS gel electrophoresis and peptides detected by silver staining. In the conditions tested, multiple bands with various staining intensities were detected in peptide X aggregated fraction and two of these bands were decreased with DMSO treatment (A—left panel, arrows) leading to an increase in the amount of soluble peptide X (B—right panel, arrow, lane 2 versus 3). […] (A-B) Lane 1: Molecular weight marker. Lanes 2-5: samples.
Aggregation assay. Soluble peptides were separated from aggregates and precipitates by filtration. The molecular weight cut-off of the filter was chosen such that soluble protein was allowed to pass through the filter, while aggregate forms were retained. Peptide X and P16 previously dissolved in 50 mM Tris-HCl (pH=7.0) were left untreated or treated with 0.5% dimethyl sulfoxide (DMSO) for 2 hours at 4° C. Soluble protein was then separated from aggregated protein using a Microcon™ concentrator (Millipore), with a molecular weight cut-off of 100 kDa. The Microcon was spun in a desktop centrifuge at 16,000×g for 15 min. Aggregated protein retained on the membrane was resuspended in H2O, pipetting repeatedly across the membrane to ensure that as much protein as possible was removed. Aliquots of soluble protein and aggregated protein were each mixed with 5× sample buffer (250 mM Tris-HCl, 40% glycerol, 140 mM SDS, 0.6 M β-mercaptoethanol, pH 6.8) and heated to 85-90° C. for 10 min prior to Tricine SDS-PAGE. Samples were analyzed by 17% Tricine SDS-PAGE and peptides visualized by silver staining. Aggrescan Analysis
Peptide X (X, 40 amino acids) and P16 (16 amino acids) were left untreated (−) or treated with 0.5% DMSO (+) for 2 hrs at 4° C. The aggregated and non-aggregated (soluble) fractions were then separated using a Microcon centrifugal filtration device (Millipore), with a molecular weight cut-off of 100 kDa. This device allows passage of molecules less than 100 kDa through the filter but retains larger molecules (aggregates). The aggregated and soluble fractions were then separated by 17% Tricine-SDS gel electrophoresis and peptides visualized by silver staining.

[2] = Size-exclusion chromatography on Superdex Peptide 10/300GL column; format: physicochemical; settings: for formation of aggregates by size-exclusion chromatography: peptide in PBS, Superdex Peptide 10/300GL, 0.6 ml/min; for Aggregation?: size-exclusion chromatography, peptide dissolved in PBS
Procedure: Approximately 200 μg of each peptide X (40 amino acids), X-1 (28 amino acids), peptide A (161 amino acids), P11 (11 amino acids), P16 (16 amino acids), P21 (21 amino acids, P16-2 (16 amino acids, scrambled sequence control), X-3 (16 amino acids) and X-4 (11 amino acids) were dissolved in phosphate-buffered saline (PBS) and loaded onto a Superdex Peptide 10/300GL column. The column was eluted with PBS at a flow rate of 0.6 mL/min and eluents were analyzed for peptide content by measuring relative absorbance at a wavelength of 215 nm. (FIGS. 3A and 3B) The data is plotted with relative absorbance (Y-axis) against elution volume (X-axis). Peptides 1-9 are color coded (A—peptides (1) to (5); B (peptides (6) to (9)). As shown on panel A, peptide X (peptide 1, black line) elution profile indicated two major peaks at approximately 8 mL and 11 mL which correspond to molecular weights greater than 12.4 kDa. The theoretical molecular weight of peptide X is 4.7 kDa which is expected to elute from the column at approximately 15 mL. Under the conditions tested, peptide X existed as high molecular weight aggregates with minimal soluble (monomeric) form. On the other hand, P16 (peptide 5, green line) elution profile indicated a broad peak between 14-22 mL which is expected to contain peptides of between 0.1 and 6 kDa and is consistent with its theoretical molecular weight of 2.01 kDa.
FIG. 4 illustrates the standard curve used for size-exclusion chromatography of standard peptides using the Superdex Peptide 10/300 GL column (results provided in FIG. 3). A pool of standard peptides of various molecular weights (1. cytochrome c (Mr 12.384 kDa) 1 mg/mL; 2. aprotinin (Mr 6.512 kDa) 2 mg/mL; 3. vitamin B12 (Mr 1.355 kDa) 0.1 mg/mL; 4. (Gly)3 (Mr 0.189 kDa) 0.1 mg/mL; 5. Gly (Mr 0.075 kDa) 7.8 mg/mL) were subjected to size-exclusion chromatography using the Superdex Peptide 10/300 GL column (flow rate 0.5 ml/min at room temperature, sample volume of 50 μL, eluent 0.05M phosphate, 0.15 M NaCl, ph 7.0). The resulting chromatogram (absorbance at 215 nm (in mAU, left Y axis) and conductivity (in mS/cm, right Y axis, in function of volume of elution (in mL)) indicates the elution profiles of the above peptides with high MW peptides eluting in earlier fractions and lower MW peptides eluting in later fractions as expected. The molecular weights of peptides were plotted against elution volume generating a standard curve (not shown).
More specifically, approximately […] of each peptide X (40 amino acids), X-1 (28 amino acids), peptide A (161 amino acids), P11 (11 amino acids), P16 (16 amino acids), P21 (21 amino acids, P16-2 (16 amino acids, scrambled sequence control), X-3 (16 amino acids) and X-4 (11 amino acids) were dissolved in phosphate-buffered saline (PBS) and loaded onto a Superdex Peptide 10/300GL column. The column was eluted with PBS at a flow rate of 0.6 ml/min and eluants were analyzed for peptide content by measuring relative absorbance at a wavelength of 215 nm. The data were plotted with relative absorbance (Y-axis) against elution volume (X-axis). […] The theoretical molecular weight of peptide X is 4.7 kDa which is expected to elute from the column at approximately 15 mL. […] P16 (peptide 5) elution profile indicated a peak between 14-22 mL which was expected to contain peptides of between 0.1 and 6 kDa and is consistent with its theoretical molecular weight of 2.01 kDa.
More specifically, a pool of standard proteins of various molecular weights were subjected to size-exclusion chromatography using the Superdex Peptide 10/300 GL column. The resulting chromatogram indicated the elution profiles of the peptides with high molecular weight peptides eluting in earlier fractions and lower molecular weight peptides eluting in later fractions as expected. The molecular weights of peptides were plotted against elution volume generating a standard curve (not shown) and was used to calculate molecular weights of the CD109-based peptides. […]

Sequence | aggregation state (aggregated versus soluble fraction) [1] | effect of DMSO treatment on aggregation [1] | formation of aggregates by size-exclusion chromatography [2] | Aggregation? [2] | molecular weights corresponding to the elution peaks ([2]; PBS, theoretical MW peptide X 4.7 kDa, P16 2.01 kDa)
ETWIWLDTNMGSRIYQ [Peptide P16] | aggregated only to a minor extent | not altered by DMSO treatment | did not | Not aggregated | 
LGSSPHVRKHFPETWIWLDTNMGSRIYQEFEVTVPDSITS (Peptide X) | existed predominantly in aggregated form | partially decreased | formed aggregates | Aggregated | greater than 12.4 kDa
